Each block holds one molecule with its values, some of them ahead of it.
Legend:
[1] = target: human FcγRIIa-H131 (human) (UniProt P12318); experiment: Fc variant affinity for Fcγ receptor; method not stated
[2] = target: human FcγRIIb (human) (UniProt P31994); experiment: as above
[3] = target: human FcγRIIa-R131 (human) (UniProt P12318); experiment: as above
[4] = target: T1, human FcγRIIa-H131 (human, UniProt P12318 34-217, limits assumed); experiment: BLI (FORTEBIO Octet), %Rmax; supernatant 12D6-24-V9-DT-sup; receptor hCD32a/FcγRIIa-H131
T1 construct: also called hCD32a/FcγRIIa-H131
T1 sequence (looked up): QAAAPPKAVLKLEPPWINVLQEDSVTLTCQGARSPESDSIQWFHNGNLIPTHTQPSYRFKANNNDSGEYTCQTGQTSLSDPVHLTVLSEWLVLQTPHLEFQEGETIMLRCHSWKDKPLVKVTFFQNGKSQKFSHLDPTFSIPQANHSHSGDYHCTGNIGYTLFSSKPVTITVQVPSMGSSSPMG

[5] = target: T1, human FcγRIIa-H131; experiment: BLI (FORTEBIO Octet), %Rmax; supernatant 5F11-45-V9-DT-sup; receptor hCD32a/FcγRIIa-H131

Chain of human FcγRIIb (human) (P31994 43-217 limits assumed): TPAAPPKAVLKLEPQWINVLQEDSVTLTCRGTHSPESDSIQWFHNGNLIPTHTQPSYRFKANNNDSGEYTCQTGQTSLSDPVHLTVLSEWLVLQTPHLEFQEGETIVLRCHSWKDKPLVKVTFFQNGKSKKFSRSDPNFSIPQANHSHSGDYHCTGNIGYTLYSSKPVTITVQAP

Kd [1]: 530 nM | Kd [2]: 3900 nM | Kd [3]: 850 nM
Molecule: Fc sequence variant IgG1f (antibody with human IgG1f constant domain)

Kd [1]: 520 nM | Kd [2]: 98 nM | Kd [3]: 22 nM
Molecule: Fc sequence variant SE (antibody)

binding result [5]: no binding (tested: 10 µM)
B2: 5F11-45-V9-DT-sup (antibody, human IgG1, kappa)
heavy chain: QVQLVQSGAEVKKPGSSVKVSCKASGYTFTDLSMHWVRQAPGQGLEWMGYITPSSGYTAYNQKFKGKTTLTADKSTSTAYMELSSLRSEDTAVYYCARLILQRGAYWGQGTLVTVSSASTKGPSVFPLAPSSKSTSGGTAALGCLVKDYFPEPVTVSWNSGALTSGVHTFPAVLQSSGLYSLSSVVTVPSSSLGTQTYICNVNHKPSNTKVDKRVEPKSCDKTHTCPPCPAPELLGDDSVFLFPPKPKDTLMISRTPEVTCVVVDVSHETGEVKFNWYVDGVEVHNAKTKPREEQYNSTYRVVSVLTVLHQDWLNGKEYKCKVSNKALPRPIEKTISKAKGQPREPQVYTLPPSREEMTKNQVSLTCLVKGFYPSDIAVEWESNGQPENNYKTTPPVLDSDGSFFLYSKLTVDKSRWQQGNVFSCSVMHEALHNHYTQKSLSLSPG
light chain: DIVLTQSPDSLAVSLGERATINCRASKNVDSYGNSFMHWYQQKPGQPPKLLIYRASNLESGVPDRFSGSGSGTDFTLTISSLQAEDVAVYYCQQSNEDPLTFGQGTKLEIKRTVAAPSVFIFPPSDEQLKSGTASVVCLLNNFYPREAKVQWKVDNALQSGNSQESVTEQDSKDSTYSLSSTLTLSKADYEKHKVYACEVTHQGLSSPVTKSFNRGEC
notes: Tested as a supernatant of antibody producing cells; also called 5F11-45 V9 D270T

More lines, now with the values behind:

Molecule: Fc sequence variant P238D (antibody)
Kd [2]: 950 nM

Molecule: Fc sequence variant SELF (antibody)
Kd [3]: 2 nM

B1: 12D6-24-V9-DT-sup (antibody)
heavy: QVQLVQSGAEVKKPGASVKVSCKASGYTFTGYNMNWVRQAPGQGLEWMGNIDPYYGNTNYNQKFKGRVTMTTDTSTSTAYMELRSLRSDDTAVYYCARLGLQLYALDYWGQGTTVTVSSASTKGPSVFPLAPSSKSTSGGTAALGCLVKDYFPEPVTVSWNSGALTSGVHTFPAVLQSSGLYSLSSVVTVPSSSLGTQTYICNVNHKPSNTKVDKRVEPKSCDKTHTCPPCPAPELLGDDSVFLFPPKPKDTLMISRTPEVTCVVVDVSHETGEVKFNWYVDGVEVHNAKTKPREEQYNSTYRVVSVLTVLHQDWLNGKEYKCKVSNKALPRPIEKTISKAKGQPREPQVYTLPPSREEMTKNQVSLTCLVKGFYPSDIAVEWESNGQPENNYKTTPPVLDSDGSFFLYSKLTVDKSRWQQGNVFSCSVMHEALHNHYTQKSLSLSPG
light: DIVMTQTPLSLPVTPGEPASISCRSSQSLVHSNANTYLHWYLQKPGQSPQLLIYKLTNRFFGVPDRFSGSGSGTDFTLKISRVEAEDVGVYYCSQSIHVPWTFGGGTKVEIKRTVAAPSVFIFPPSDEQLKSGTASVVCLLNNFYPREAKVQWKVDNALQSGNSQESVTEQDSKDSTYSLSSTLTLSKADYEKHKVYACEVTHQGLSSPVTKSFNRGEC
notes: Tested as a supernatant of antibody producing cells; also called 12D6-24 V9 D270T; copies: 2 + 2
binding result [4]: no binding (tested: 10 µM)

From US20200071412A1 (ROCKEFELLER UNIVERSITY, published 2020)
